Experimental data as given in patent US20250388669A1 (published 2025).

Tests used:
PD-1 (binding assay) = PD-1 (binding assay) (UniProt Q15116 25-167, limits assumed); experiment: FCM or ELISA, graded
PD-1 = molecular target: T1, PD-1 (human, UniProt Q15116 25-167, limits assumed); experiment: FCM or ELISA
T1 construct: The reporter assay used Jurkat T cells expressing human PD-1
T1 sequence (Q15116 25-167 limits assumed): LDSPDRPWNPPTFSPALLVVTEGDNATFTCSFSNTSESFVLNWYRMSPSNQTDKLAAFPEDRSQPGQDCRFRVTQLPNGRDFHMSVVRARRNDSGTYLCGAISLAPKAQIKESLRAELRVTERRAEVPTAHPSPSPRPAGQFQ

Chain of PD-1 (binding assay) (Q15116 25-167 limits assumed): as above

B1: Ly2281 (bispecific antibody)
heavy 1: QVTLKESGPALVKPTQTLTLTCTFSGFSLSTSGTCVSWIRQPPGKALEWLATICWEDSKGYNPSLKSRLTISKDTSKNQAVLTMTNMDPVDTATYYCARREDSGYFWFPYWGQGTLVTVSSASTKGPSVFPLAPSSKSTSGGTAALGCLVKDYFPEPVTVSWNSGALTSGVHTFPAVLQSSGLYSLSSVVTVPSSSLGTQTYICNVNHKPSNTKVDKKVEPKSCGGGGSGGGGSGGGGSGGGGSQVQLVQSGAEVKKPGASVKVSCKASGYTFAGFEMHWVRQAPGQGLEWMGAIDPKTGGTDYNQKFKDRVTMTRDTSISTAYMELSRLRSDDTAVYYCARDLGYFDVWGQGTLVTVSSGGGGSDKTHTCPPCPAPEAAGPSVFLFPPKPKDTLMISRTPEVTCVVVDVSHEDPEVKFNWYVDGVEVHNAKTKPREEQYNSTYRVVSVLTVLHQDWLNGKEYKCKVSNKALPAPIEKTISKAKGQPREPQVYTLPPSREEMTKNQVSLWCLVKGFYPSDIAVEWESNGQPENNYKTTPPVLDSDGSFFLYSKLTVDKSRWQQGNVFSCSVMHEALHNHYTQKSLSLSPG
heavy 2: QVTLKESGPALVKPTQTLTLTCTFSGFSLSTSGTCVSWIRQPPGKALEWLATICWEDSKGYNPSLKSRLTISKDTSKNQAVLTMTNMDPVDTATYYCARREDSGYFWFPYWGQGTLVTVSSASTKGPSVFPLAPSSKSTSGGTAALGCLVKDYFPEPVTVSWNSGALTSGVHTFPAVLQSSGLYSLSSVVTVPSSSLGTQTYICNVNHKPSNTKVDKKVEPKSCGGGGSGGGGSGGGGSGGGGSDIQMTQSPSSLSASVGDRVTITCRASQDIRSNLNWYQQKPGGAVKLLIYYTSRLHSGVPSRFSGSGSGTDYTLTISSLQPEDFATYFCQQSEKLPRTFGGGTKVEIRGGGGSDKTHTCPPCPAPEAAGPSVFLFPPKPKDTLMISRTPEVTCVVVDVSHEDPEVKFNWYVDGVEVHNAKTKPREEQYNSTYRVVSVLTVLHQDWLNGKEYKCKVSNKALPAPIEKTISKAKGQPREPQVYTLPPSREEMTKNQVSLSCAVKGFYPSDIAVEWESNGQPENNYKTTPPVLDSDGSFFLVSKLTVDKSRWQQGNVFSCSVMHEALHNRFTQKSLSLSPG
light: NIQMTQSPSSLSASVGDRVTITCKAGQNVNNYLAWYQQKPGKAPKVLIFNANSLQTGVPSRFSGSGSGTDFTLTISSLQPEDFATYYCQQYNSWPTFGGGTKVEIKRTVAAPSVFIFPPSDEQLKSGTASVVCLLNNFYPREAKVQWKVDNALQSGNSQESVTEQDSKDSTYSLSSTLTLSKADYEKHKVYACEVTHQGLSSPVTKSFNRGEC
notes: PD-1 Fabs (Ly516) x central CD137 Fv
binding result (PD-1 (binding assay)): binds

B2: Ly2281 (bispecific antibody)
chain 1: QVTLKESGPALVKPTQTLTLTCTFSGFSLSTSGTCVSWIRQPPGKALEWLATICWEDSKGYNPSLKSRLTISKDTSKNQAVLTMTNMDPVDTATYYCARREDSGYFWFPYWGQGTLVTVSSASTKGPSVFPLAPSSKSTSGGTAALGCLVKDYFPEPVTVSWNSGALTSGVHTFPAVLQSSGLYSLSSVVTVPSSSLGTQTYICNVNHKPSNTKVDKKVEPKSCGGGGSGGGGSGGGGSGGGGSQVQLVQSGAEVKKPGASVKVSCKASGYTFAGFEMHWVRQAPGQGLEWMGAIDPKTGGTDYNQKFKDRVTMTRDTSISTAYMELSRLRSDDTAVYYCARDLGYFDVWGQGTLVTVSSGGGGSDKTHTCPPCPAPEAAGPSVFLFPPKPKDTLMISRTPEVTCVVVDVSHEDPEVKFNWYVDGVEVHNAKTKPREEQYNSTYRVVSVLTVLHQDWLNGKEYKCKVSNKALPAPIEKTISKAKGQPREPQVYTLPPSREEMTKNQVSLWCLVKGFYPSDIAVEWESNGQPENNYKTTPPVLDSDGSFFLYSKLTVDKSRWQQGNVFSCSVMHEALHNHYTQKSLSLSPG
chain 2: QVTLKESGPALVKPTQTLTLTCTFSGFSLSTSGTCVSWIRQPPGKALEWLATICWEDSKGYNPSLKSRLTISKDTSKNQAVLTMTNMDPVDTATYYCARREDSGYFWFPYWGQGTLVTVSSASTKGPSVFPLAPSSKSTSGGTAALGCLVKDYFPEPVTVSWNSGALTSGVHTFPAVLQSSGLYSLSSVVTVPSSSLGTQTYICNVNHKPSNTKVDKKVEPKSCGGGGSGGGGSGGGGSGGGGSDIQMTQSPSSLSASVGDRVTITCRASQDIRSNLNWYQQKPGGAVKLLIYYTSRLHSGVPSRFSGSGSGTDYTLTISSLQPEDFATYFCQQSEKLPRTFGGGTKVEIRGGGGSDKTHTCPPCPAPEAAGPSVFLFPPKPKDTLMISRTPEVTCVVVDVSHEDPEVKFNWYVDGVEVHNAKTKPREEQYNSTYRVVSVLTVLHQDWLNGKEYKCKVSNKALPAPIEKTISKAKGQPREPQVYTLPPSREEMTKNQVSLSCAVKGFYPSDIAVEWESNGQPENNYKTTPPVLDSDGSFFLVSKLTVDKSRWQQGNVFSCSVMHEALHNRFTQKSLSLSPG
light: NIQMTQSPSSLSASVGDRVTITCKAGQNVNNYLAWYQQKPGKAPKVLIFNANSLQTGVPSRFSGSGSGTDFTLTISSLQPEDFATYYCQQYNSWPTFGGGTKVEIKRTVAAPSVFIFPPSDEQLKSGTASVVCLLNNFYPREAKVQWKVDNALQSGNSQESVTEQDSKDSTYSLSSTLTLSKADYEKHKVYACEVTHQGLSSPVTKSFNRGEC
notes: PD-1/CD137: two PD-1 Fabs, central CD137 Fv
binding result (PD-1): binds

B3: Ly2280 (bispecific antibody)
heavy 1: not shown
heavy 2: QVTLKESGPALVKPTQTLTLTCTFSGFSLSTSGTCVSWIRQPPGKALEWLATICWEDSKGYNPSLKSRLTISKDTSKNQAVLTMTNMDPVDTATYYCARREDSGYFWFPYWGQGTLVTVSSASTKGPSVFPLAPSSKSTSGGTAALGCLVKDYFPEPVTVSWNSGALTSGVHTFPAVLQSSGLYSLSSVVTVPSSSLGTQTYICNVNHKPSNTKVDKKVEPKSCGGGGSGGGGSGGGGSGGGGSDIQMTQSPSSVSASVGDRVTITCRASQGIYSWLAWYQQKPGKAPNLLIYTASTLQSGVPSRFSGSGSGTDFTLTISSLQPEDFATYYCQQANIFPLTFGGGTKVEIKGGGGSDKTHTCPPCPAPEAAGPSVFLFPPKPKDTLMISRTPEVTCVVVDVSHEDPEVKFNWYVDGVEVHNAKTKPREEQYNSTYRVVSVLTVLHQDWLNGKEYKCKVSNKALPAPIEKTISKAKGQPREPQVYTLPPSREEMTKNQVSLSCAVKGFYPSDIAVEWESNGQPENNYKTTPPVLDSDGSFFLVSKLTVDKSRWQQGNVFSCSVMHEALHNRFTQKSLSLSPG
light: NIQMTQSPSSLSASVGDRVTITCKAGQNVNNYLAWYQQKPGKAPKVLIFNANSLQTGVPSRFSGSGSGTDFTLTISSLQPEDFATYYCQQYNSWPTFGGGTKVEIKRTVAAPSVFIFPPSDEQLKSGTASVVCLLNNFYPREAKVQWKVDNALQSGNSQESVTEQDSKDSTYSLSSTLTLSKADYEKHKVYACEVTHQGLSSPVTKSFNRGEC
notes: PD-1 Fabs (Ly516) x central CD40 Fv (TM383)
binding result (PD-1 (binding assay)): binds
